From US9605283B2, “Microorganism modified for the production of 1,3-propanediol” (INSTITUT NATIONAL DES SCIENCES APPLIQUÉES, priority 2012, dated 2017)
Substitutions are numbered along the chain they refer to. Names may count otherwise.

How the values were obtained:
[1] = substrate: C[C@H](O)C(=O)O; assay: purified protein, by the assay type; format: biochemical, Escherichia coli; conditions: other: 37° C., pH 7, DCIP reduction
Description: (§1) Activity of the membrane-associated DHB dehydrogenase (Ec-LldD) was assayed by following the DHB-dependent reduction of 2,6-dichloroindophenol (DCIP). (L)-2,4-dihydroxybutyrate+DCIPox→2-oxo-4-hydroxybutyrate+DCIPred Reaction scheme 2:
(§2) Reactions were started by adding 20 mM (L)-2,4-dihydroxybutyrate (Rhodia).
(§3) Site-directed mutagenesis of the E. coli lldD gene was carried out using the oligonucleotide pairs listed in Table 5 and the pET28-Ec-lldD plasmid as the template.

[2] = substrate: O=C(O)[C@@H](O)CCO; assay: purified protein, by the assay type; format: biochemical, Escherichia coli; conditions: other: 37° C., pH 7, 0.06 mM DCIP
Description: as §1, §2, §3

[3] = substrate: CC(=O)C(=O)O; assay: OHB decarboxylase / pyruvate decarboxylase kinetics, Zm-Pdc wild type; format: biochemical, Zymomonas mobilis; conditions: other: 37° C., pH 7, coupled to yeast alcohol dehydrogenase/NADH
From the text: (§4) Genomic DNAs of S. cerevisiae BY4741, and Z. mobilis (Lindner) Kluyver and van Niel (ATCC® 31821) were used as the template. […] Ligation products were transformed into competent E. coli DH5α cells (NEB). […] The corresponding protein sequences are represented by SEQ No. 208 and SEQ ID No. 208 128 respectively.
(§5) The plasmids were used to transform E. coli BL21 (DE3) star cells and the enzymes carrying an N-terminal hexa-His tag were expressed and purified as described in Example 1. Decarboxylase activity on 2-oxo-4-hydroxybutyrate (OHB), pyruvate (Sigma), and 4-methyl-2-oxovaleric acid (Sigma) was quantified.
(§6) OHB decarboxylase activity was assayed by coupling the decarboxylase activity to the NADPH-dependent reduction of the released 3-hydroxypropanal by purified aldehyde reductase, YqhD, from E. coli. The decarboxylation of pyruvate was coupled to the NADH-dependent reduction of acetaldehyde catalysed by yeast alcohol dehydrogenase. Branched-chain alpha-ketoacid decarboxylase activity was measured on 4-methyl-2-oxovaleric acid by coupling to the NADH-dependent reduction of 3-methylbutanal catalysed by horse liver alcohol dehydrogenase. […] Reactions were started by adding 20 mM 2-oxo-4-hydroxybutyrate (OHB), 10 mM 4-methyl-2-oxovaleric acid (MOV), or 5 mM pyruvate.

[4] = substrate: O=C(O)C(=O)CCO; assay: as above; format: biochemical, Zymomonas mobilis; conditions: other: 37° C., pH 7, coupled to E. coli YqhD/NADPH
From the text: as §4, §5, §6

[5] = substrate: CC(=O)C(=O)O; assay: OHB decarboxylase / pyruvate decarboxylase kinetics, Zm-Pdc W392Q; format: biochemical, Zymomonas mobilis; conditions: other: 37° C., pH 7, coupled to yeast alcohol dehydrogenase/NADH
Description: as §6
(§7) Site-directed mutagenesis of the L. lactis kdcA and the Z. mobilis Pdc genes was carried out using the oligonucleotide pairs listed in Table 9 and the pET28-Ll-kdcA and pET28-Zm-Pdc plasmids, respectively, as the template.
(§8) Mutant enzymes were expressed, purified and tested for OHB decarboxylase, pyruvate decarboxylase and MOV decarboxylase activity as described in Example 4.

[6] = substrate: O=C(O)C(=O)CCO; assay: as above; format: biochemical, Zymomonas mobilis; conditions: other: 37° C., pH 7, coupled to E. coli YqhD/NADPH
Description: as §6, §7, §8

[7] = substrate: O=C(O)C(=O)CCO; assay: OHB decarboxylase / pyruvate decarboxylase kinetics, Zm-Pdc W392L; format: biochemical, Zymomonas mobilis; conditions: other: 37° C., pH 7, coupled to E. coli YqhD/NADPH
Description: as §6, §7, §8

[8] = substrate: O=C(O)C(=O)CCO; assay: OHB decarboxylase / pyruvate decarboxylase kinetics, Zm-Pdc G413N; format: biochemical, Zymomonas mobilis; conditions: other: 37° C., pH 7, coupled to E. coli YqhD/NADPH
Description: as §6, §7, §8

[9] = substrate: O=C(O)C(=O)CCO; assay: OHB decarboxylase / branched-chain alpha-ketoacid decarboxylase kinetics, Ll-KdcA wild type; format: biochemical, Lactococcus lactis B1157-NIZO; conditions: other: 37° C., pH 7, coupled to E. coli YqhD/NADPH
From the text: (§9) The branched-chain alpha-ketoacid decarboxylase encoding gene Ll-kdcA from L. lactis B1157-NIZO was codon-optimized for expression in E. coli. […] The resulting pET28-Ll-kdcA plasmid was shown by DNA sequencing to have the correct sequence.
as §5, §6

[10] = substrate: CC(C)CC(=O)C(=O)O; assay: as above; format: biochemical, Lactococcus lactis B1157-NIZO; conditions: other: 37° C., pH 7, coupled to horse liver alcohol dehydrogenase/NADH
From the text: as §9, §5, §6

[11] = substrate: O=C(O)C(=O)CCO; assay: OHB decarboxylase / MOV decarboxylase kinetics, Ll-KdcA G402S; format: biochemical, Lactococcus lactis; conditions: other: 37° C., pH 7, coupled to E. coli YqhD/NADPH
Description: as §6, §7, §8

[12] = substrate: CC(C)CC(=O)C(=O)O; assay: as above; format: biochemical, Lactococcus lactis; conditions: other: 37° C., pH 7, coupled to horse liver alcohol dehydrogenase/NADH
Description: as §6, §7, §8

[13] = substrate: O=C(O)C(=O)CCO; assay: OHB decarboxylase / MOV decarboxylase kinetics, Ll-KdcA V461I; format: biochemical, Lactococcus lactis; conditions: other: 37° C., pH 7, coupled to E. coli YqhD/NADPH
Description: as §6, §7, §8

[14] = substrate: CC(C)CC(=O)C(=O)O; assay: as above; format: biochemical, Lactococcus lactis; conditions: other: 37° C., pH 7, coupled to horse liver alcohol dehydrogenase/NADH
Description: as §6, §7, §8

B1: Escherichia coli (L)-lactate dehydrogenase Ec-LldD variant V108C, SEQ ID No. 174 (Escherichia coli K-12; V108C) (protein)
chain: MIISAASDYRAAAQRILPPFLFHYMDGGAYSEYTLRRNVEDLSEVALRQRILKNMSDLSLETTLFNEKLSMPVALAPVGLCGMYARRGEVQAAKAADAHGIPFTLSTCSVCPIEEVAPAIKRPMWFQLYVLRDRGFMRNALERAKAAGCSTLVFTVDMPTPGARYRDAHSGMSGPNAAMRRYLQAVTHPQWAWDVGLNGRPHDLGNISAYLGKPTGLEDYIGWLGNNFDPSISWKDLEWIRDFWDGPMVIKGILDPEDARDAVRFGADGIVVSNHGGRQLDGVLSSARALPAIADAVKGDIAILADSGIRNGLDVVRMIALGADTVLLGRAFLYALATAGQAGVANLLNLIEKEMKVAMTLTGAKSISEITQDSLVQGLGKELPAALAPMAKGNAA
notes: DCIP assay
- Km [1]: 420 µM
- Km [2]: 850 µM

B2: Zymomonas mobilis pyruvate decarboxylase Zm-Pdc, wild type, SEQ ID No. 128 (Zymomonas mobilis subsp. mobilis ZM4 = ATCC 31821) (protein)
chain: MSYTVGTYLAERLVQIGLKHHFAVAGDYNLVLLDNLLLNKNMEQVYCCNELNCGFSAEGYARAKGAAAAVVTYSVGALSAFDAIGGAYAENLPVILISGAPNNNDHAAGHVLHHALGKTDYHYQLEMAKNITAAAEAIYTPEEAPAKIDHVIKTALREKKPVYLEIACNIASMPCAAPGPASALFNDEASDEASLNAAVEETLKFIANRDKVAVLVGSKLRAAGAEEAAVKFADALGGAVATMAAAKSFFPEENPHYIGTSWGEVSYPGVEKTMKEADAVIALAPVFNDYSTTGWTDIPDPKKLVLAEPRSVVVNGIRFPSVHLKDYLTRLAQKVSKKTGALDFFKSLNAGELKKAAPADPSAPLVNAEIARQVEALLTPNTTVIAETGDSWFNAQRMKLPNGARVEYEMQWGHIGWSVPAAFGYAVGAPERRNILMVGDGSFQLTAQEVAQMVRLKLPVIIFLINNYGYTIEVMIHDGPYNNIKNWDYAGLMEVFNGNGGYDSGAGKGLKAKTGGELAEAIKVALANTDGPTLIECFIGREDCTEELVKWGKRVAAANSRKPVNKLL
notes: hexa-His (N); made in house; host or cells: E. coli BL21 (DE3) star
- Km [3]: 2500 µM
- Km [4]: 1500 µM

B3: Zymomonas mobilis pyruvate decarboxylase Zm-Pdc variant W392Q, SEQ ID No. 190 (Zymomonas mobilis subsp. mobilis ZM4 = ATCC 31821; W392Q) (protein)
chain: B2 chain with W392Q
- Km [5]: 9200 µM
- Km [6]: 2900 µM

B4: Zymomonas mobilis pyruvate decarboxylase Zm-Pdc variant W392L, SEQ ID No. 192 (Zymomonas mobilis subsp. mobilis ZM4 = ATCC 31821; W392L) (protein)
chain: B2 chain with W392L
- Km [7]: 3700 µM

B5: Zymomonas mobilis pyruvate decarboxylase Zm-Pdc variant G413N, SEQ ID No. 194 (Zymomonas mobilis subsp. mobilis ZM4 = ATCC 31821; G413N) (protein)
chain: B2 chain with G413N
- Km [8]: 1400 µM

B6: Lactococcus lactis branched-chain alpha-ketoacid decarboxylase Ll-KdcA, wild type, SEQ ID No. 130 (Lactococcus lactis) (protein)
chain: MYTVGDYLLDRLHELGIEEIFGVPGDYNLQFLDQIISREDMKWIGNANELNASYMADGYARTKKAAAFLTTFGVGELSAINGLAGSYAENLPVVEIVGSPTSKVQNDGKFVHHTLADGDFKHFMKMHEPVTAARTLLTAENATYEIDRVLSQLLKERKPVYINLPVDVAAAKAEKPALSLEKESSTTNTTEQVILSKIEESLKNAQKPVVIAGHEVISFGLEKTVTQFVSETKLPITTLNFGKSAVDESLPSFLGIYNGKLSEISLKNFVESADFILMLGVKLTDSSTGAFTHHLDENKMISLNIDEGIIFNKVVEDFDFRAVVSSLSELKGIEYEGQYIDKQYEEFIPSSAPLSQDRLWQAVESLTQSNETIVAEQGTSFFGASTIFLKSNSRFIGQPLWGSIGYTFPAALGSQIADKESRHLLFIGDGSLQLTVQELGLSIREKLNPICFIINNDGYTVEREIHGPTQSYNDIPMWNYSKLPETFGATEDRVVSKIVRTENEFVSVMKEAQADVNRMYWIELVLEKEDAPKLLKKMGKLFAEQNK
- Km [9]: 4000 µM
- Km [10]: 150 µM

B7: Lactococcus lactis branched chain 2-oxoacid decarboxylase Ll-KdcA variant G402S, SEQ ID No. 196 (Lactococcus lactis; G402S) (protein)
chain: B6 chain with G402S
- Km [11]: 1500 µM
- Km [12]: 1500 µM

B8: Lactococcus lactis branched chain 2-oxoacid decarboxylase Ll-KdcA variant V461I, SEQ ID No. 198 (Lactococcus lactis; V461I) (protein)
chain: B6 chain with V461I
- Km [13]: 2800 µM
- Km [14]: 150 µM
